Experiment in all cases: SPR, antibody captured, FcgR analyte
In general terms: In SPR one partner is held on a chip, and binding of the other changes the refractive index at the surface.

The target of assay [1] is T1, cynomolgus monkey FcγRIIb extracellular domain, His-tagged (cynomolgus monkey).
T1 construct: also called cyno FcγRIIb; cynoFcγRIIb
T1 chain: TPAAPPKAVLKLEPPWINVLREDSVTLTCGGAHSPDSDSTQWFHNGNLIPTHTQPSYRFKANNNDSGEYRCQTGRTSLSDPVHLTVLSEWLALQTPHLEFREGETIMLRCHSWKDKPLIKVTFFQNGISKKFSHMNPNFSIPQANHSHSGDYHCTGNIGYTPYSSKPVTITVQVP

Assay [2] deals with T2, cynomolgus monkey FcγRIIa2 extracellular domain, His-tagged (cynomolgus monkey).
T2 construct: also called cyno FcγRIIa2; cynoFcgRIIa2
T2 chain: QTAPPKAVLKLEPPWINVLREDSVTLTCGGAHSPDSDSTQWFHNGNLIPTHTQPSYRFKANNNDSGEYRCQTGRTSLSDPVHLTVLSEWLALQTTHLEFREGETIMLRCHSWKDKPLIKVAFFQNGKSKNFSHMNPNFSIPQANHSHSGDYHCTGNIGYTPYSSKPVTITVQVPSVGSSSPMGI

Assay [3] addresses T3, cynomolgus monkey FcγRIIIaS extracellular domain, His-tagged (cynomolgus monkey, UniProt Q8SPW2 21-206 at identity 1.00)).
T3 construct: also called cyno FcγRIIIaS; cynoFcγRIIIaS
T3 chain: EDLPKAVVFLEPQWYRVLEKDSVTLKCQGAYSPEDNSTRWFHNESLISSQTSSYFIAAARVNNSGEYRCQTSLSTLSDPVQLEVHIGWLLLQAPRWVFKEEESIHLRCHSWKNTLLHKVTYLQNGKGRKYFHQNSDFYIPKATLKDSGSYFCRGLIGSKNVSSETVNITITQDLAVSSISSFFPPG

Assay [4] deals with T4, human FcγRIIaH extracellular domain, His-tagged (human, UniProt P12318 34-217).
T4 construct: also called human FcγRIIa (type H); FcgRIIaH
T4 sequence: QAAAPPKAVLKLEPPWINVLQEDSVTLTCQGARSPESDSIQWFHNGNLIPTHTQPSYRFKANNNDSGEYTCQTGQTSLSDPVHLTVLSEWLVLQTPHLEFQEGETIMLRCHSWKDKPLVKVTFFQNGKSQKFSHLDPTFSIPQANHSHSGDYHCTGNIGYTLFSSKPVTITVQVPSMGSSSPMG

For assay [5], the target named is T5, human FcγRIIb extracellular domain, His-tagged (human, UniProt P31994 43-217).
T5 construct: also called FcgRIIb (human)
T5 sequence: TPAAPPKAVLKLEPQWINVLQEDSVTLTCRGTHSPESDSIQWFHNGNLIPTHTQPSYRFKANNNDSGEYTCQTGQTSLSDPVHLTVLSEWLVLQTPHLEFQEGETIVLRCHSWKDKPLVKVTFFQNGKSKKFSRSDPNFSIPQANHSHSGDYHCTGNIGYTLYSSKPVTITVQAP

Assay [6] concerns the target T6, cynomolgus monkey FcγRIIa1 extracellular domain, His-tagged (cynomolgus monkey).
T6 construct: also called cyno FcγRIIa1; cynoFcgRIIa1
T6 chain: T2 chain with T95P, A121T, K127I, S128A, N130K, N135D, Q142R

The target of assay [7] is T7, human FcγRIIaR extracellular domain, His-tagged (human, UniProt P12318 34-217).
T7 construct: also called human FcγRIIa (type R); FcgRIIaR
T7 chain: T4 sequence with H134R

Assay [8] has as its target T8, cynomolgus monkey FcγRIIa3 extracellular domain, His-tagged (cynomolgus monkey).
T8 construct: also called cyno FcγRIIa3; cynoFcgRIIa3
T8 chain: T2 chain with K127I, N130K, H133P, Q142R

Positions count from the first letter of the chain named. Names and notes keep the numbering of the source.

The values that follow come from US20200317768A1 (published 2020).

B1: M103205H795-MY041/M103202L889-SK1 (antibody, human IgG1, kappa)
heavy: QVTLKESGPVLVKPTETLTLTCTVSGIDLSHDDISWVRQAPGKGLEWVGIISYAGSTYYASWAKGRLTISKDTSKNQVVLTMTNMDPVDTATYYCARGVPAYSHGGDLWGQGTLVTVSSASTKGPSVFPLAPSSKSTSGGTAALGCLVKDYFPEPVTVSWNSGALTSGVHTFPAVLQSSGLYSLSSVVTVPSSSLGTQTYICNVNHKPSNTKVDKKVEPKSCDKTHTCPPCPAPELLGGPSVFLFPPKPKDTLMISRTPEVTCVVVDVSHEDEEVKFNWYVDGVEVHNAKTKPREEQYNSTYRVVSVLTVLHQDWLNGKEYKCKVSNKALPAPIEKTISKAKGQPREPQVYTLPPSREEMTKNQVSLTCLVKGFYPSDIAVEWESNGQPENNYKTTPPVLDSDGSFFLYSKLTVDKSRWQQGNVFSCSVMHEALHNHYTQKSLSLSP
light: DIVMTQSPATLSLSPGERATLSCTSSQSVYHANWLSWFQQKPGQPPKLLIYWASTLAYGVPSRFSGSGSGTDFTLTISSLQPEDAATYYCAGGYGGGRYAFGQGTKVEIKRTVAAPSVFIFPPSDEQLKSGTASVVCLLNNFYPREAKVQWKVDNALQSGNSQESVTEQDSKDSTYSLSSTLTLSKADYEKHKVYACEVTHQGLSSPVTKSFNRGEC
notes: Substitution put into M103205H795-SG1
By Kd is commonly meant a measure of binding affinity in units of concentration. As for B1, the equilibrium dissociation constant (Kd) was 3500 nM in assay [1]; 4100 nM in assay [2]; 260 nM in assay [3]; 1800 nM in assay [4]; 3100 nM in assay [5]; 4000 nM in assay [6]. Further, the dissociation constant (Kd) worked out at 1200 nM in assay [7] and 7400 nM in assay [8].

B2: M103205H795-MY124/M103202L889-SK1 (antibody, human IgG1, kappa)
heavy: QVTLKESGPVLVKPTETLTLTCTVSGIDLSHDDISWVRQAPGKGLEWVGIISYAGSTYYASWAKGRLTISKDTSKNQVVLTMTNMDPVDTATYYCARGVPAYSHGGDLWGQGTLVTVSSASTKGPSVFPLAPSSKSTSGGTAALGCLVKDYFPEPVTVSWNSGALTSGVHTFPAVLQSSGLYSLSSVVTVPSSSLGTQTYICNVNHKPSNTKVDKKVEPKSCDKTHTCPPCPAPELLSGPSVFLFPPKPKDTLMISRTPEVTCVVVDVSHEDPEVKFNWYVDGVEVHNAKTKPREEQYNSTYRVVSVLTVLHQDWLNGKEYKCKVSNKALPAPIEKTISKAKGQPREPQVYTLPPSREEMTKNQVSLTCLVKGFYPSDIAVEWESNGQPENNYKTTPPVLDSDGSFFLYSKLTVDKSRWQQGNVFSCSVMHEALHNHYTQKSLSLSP
light: B1 light
notes: as for B1
For the molecule B2, the Kd in assay [1] is 2200 nM; in assay [2], 3100 nM; in assay [3] it was 1300 nM; in assay [4], 140 nM; in assay [5] it was 9200 nM; in assay [6], 2600 nM. Moreover, the Kd is 520 nM in assay [7] and 12000 nM in assay [8].

B3: M103205H795-MY069/M103202L889-SK1 (antibody, human IgG1, kappa)
heavy: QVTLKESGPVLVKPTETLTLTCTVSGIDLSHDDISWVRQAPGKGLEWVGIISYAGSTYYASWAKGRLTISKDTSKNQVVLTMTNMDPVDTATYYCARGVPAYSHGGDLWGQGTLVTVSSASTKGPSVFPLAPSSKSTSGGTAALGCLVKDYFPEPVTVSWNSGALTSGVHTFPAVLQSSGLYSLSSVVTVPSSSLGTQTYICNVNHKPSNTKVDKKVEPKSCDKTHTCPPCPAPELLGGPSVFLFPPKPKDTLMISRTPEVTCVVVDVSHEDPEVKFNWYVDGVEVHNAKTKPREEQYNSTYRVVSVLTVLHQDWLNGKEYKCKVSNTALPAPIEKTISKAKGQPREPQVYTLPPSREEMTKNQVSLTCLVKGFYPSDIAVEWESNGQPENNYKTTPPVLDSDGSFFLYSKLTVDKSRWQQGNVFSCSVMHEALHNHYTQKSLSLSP
light: B1 light
notes: as for B1
With B3, the Kd amounted to 730 nM in assay [1]; 1600 nM in assay [2]; 86 nM in assay [3]; 440 nM in assay [4]; 1600 nM in assay [5]; 1600 nM in assay [6]. Moreover, the figures for the Kd in assay [7] and in assay [8] were 390 nM and 6500 nM, respectively.

B4: M103205H795-MY065/M103202L889-SK1 (antibody, human IgG1, kappa)
heavy: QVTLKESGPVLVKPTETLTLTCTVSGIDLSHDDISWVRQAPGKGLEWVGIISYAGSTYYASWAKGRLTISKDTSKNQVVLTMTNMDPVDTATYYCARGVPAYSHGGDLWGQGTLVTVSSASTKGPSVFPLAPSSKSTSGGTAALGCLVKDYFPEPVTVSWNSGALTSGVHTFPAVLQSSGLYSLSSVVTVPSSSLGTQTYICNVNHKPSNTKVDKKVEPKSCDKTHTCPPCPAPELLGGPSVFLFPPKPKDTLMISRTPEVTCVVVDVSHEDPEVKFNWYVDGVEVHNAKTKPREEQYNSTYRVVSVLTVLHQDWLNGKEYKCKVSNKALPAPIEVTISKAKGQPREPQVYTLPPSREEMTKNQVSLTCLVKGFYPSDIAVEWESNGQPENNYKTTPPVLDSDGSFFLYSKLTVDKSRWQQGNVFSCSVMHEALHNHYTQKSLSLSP
light: B1 light
notes: as for B1
In the case of B4, the equilibrium dissociation constant (Kd) in assay [1] was 1300 nM; in assay [2] it was 2800 nM; in assay [3] it was 110 nM; in assay [4], 520 nM; in assay [5], 1900 nM; in assay [6], 2300 nM. In addition, the values for the Kd in assay [7] and in assay [8] were 510 nM and 4200 nM, respectively.

B5: M103205H795-MY063/M103202L889-SK1 (antibody, human IgG1, kappa)
heavy: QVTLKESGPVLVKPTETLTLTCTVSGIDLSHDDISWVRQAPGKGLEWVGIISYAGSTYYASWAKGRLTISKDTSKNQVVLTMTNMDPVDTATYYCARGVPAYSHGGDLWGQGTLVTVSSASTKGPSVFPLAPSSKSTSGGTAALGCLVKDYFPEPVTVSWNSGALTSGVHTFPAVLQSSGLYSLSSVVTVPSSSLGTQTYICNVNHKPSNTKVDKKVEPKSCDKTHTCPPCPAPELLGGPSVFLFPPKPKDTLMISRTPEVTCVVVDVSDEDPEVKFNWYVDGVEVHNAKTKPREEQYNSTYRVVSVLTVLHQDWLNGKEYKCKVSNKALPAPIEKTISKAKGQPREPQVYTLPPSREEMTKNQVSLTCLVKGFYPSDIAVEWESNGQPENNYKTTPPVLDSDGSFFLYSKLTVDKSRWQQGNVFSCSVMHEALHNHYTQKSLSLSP
light: B1 light
notes: as for B1
Regarding B5, the Kd in assay [1] amounted to 340 nM; in assay [2], 1500 nM; in assay [3], 67 nM; in assay [4] it was 270 nM; in assay [5], 660 nM; in assay [6], 1400 nM. Further, the Kd in assay [7] came out at 210 nM; in assay [8] it was 2000 nM.

B6: M103205H795-MY070/M103202L889-SK1 (antibody, human IgG1, kappa)
heavy: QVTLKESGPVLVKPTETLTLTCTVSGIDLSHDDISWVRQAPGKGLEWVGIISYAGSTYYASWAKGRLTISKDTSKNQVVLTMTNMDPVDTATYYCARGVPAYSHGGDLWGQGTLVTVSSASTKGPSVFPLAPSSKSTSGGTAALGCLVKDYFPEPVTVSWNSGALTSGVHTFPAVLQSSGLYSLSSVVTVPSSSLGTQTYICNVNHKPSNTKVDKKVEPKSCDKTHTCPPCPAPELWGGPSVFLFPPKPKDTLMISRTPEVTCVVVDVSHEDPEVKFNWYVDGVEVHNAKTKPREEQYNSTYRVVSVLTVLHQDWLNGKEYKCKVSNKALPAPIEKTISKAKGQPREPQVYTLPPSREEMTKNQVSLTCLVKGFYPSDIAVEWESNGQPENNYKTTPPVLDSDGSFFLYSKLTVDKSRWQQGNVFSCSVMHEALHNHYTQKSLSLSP
light: B1 light
notes: as for B1
Regarding B6, the dissociation constant Kd in assay [1] stood at 1200 nM; in assay [2], 2500 nM; in assay [3], 490 nM; in assay [4] it was 500 nM; in assay [5], 2600 nM; in assay [6], 2300 nM. For the same molecule, the Kd in assay [7] came out at 740 nM; in assay [8], 4700 nM.

B7: M103205H795-MY045/M103202L889-SK1 (antibody, human IgG1, kappa)
heavy: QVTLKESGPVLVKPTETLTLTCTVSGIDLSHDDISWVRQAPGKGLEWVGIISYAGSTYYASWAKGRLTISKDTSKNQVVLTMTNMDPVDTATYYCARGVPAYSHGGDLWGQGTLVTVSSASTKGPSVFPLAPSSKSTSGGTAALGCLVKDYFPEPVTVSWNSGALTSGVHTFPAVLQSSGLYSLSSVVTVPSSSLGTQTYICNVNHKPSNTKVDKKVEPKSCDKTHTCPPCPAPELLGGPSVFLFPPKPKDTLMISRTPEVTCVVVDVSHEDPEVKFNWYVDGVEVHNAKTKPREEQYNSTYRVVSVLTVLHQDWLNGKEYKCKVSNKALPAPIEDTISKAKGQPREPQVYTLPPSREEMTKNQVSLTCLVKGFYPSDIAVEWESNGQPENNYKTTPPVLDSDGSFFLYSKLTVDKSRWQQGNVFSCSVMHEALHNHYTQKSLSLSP
light: B1 light
notes: as for B1
On to B7, for which the dissociation constant (Kd) in assay [1] amounted to 2200 nM; in assay [2], 4000 nM; in assay [3] it was 140 nM; in assay [4] it was 1600 nM; in assay [5], 2900 nM; in assay [6], 5700 nM. Moreover, the Kd was found to be 1600 nM in assay [7] and 6800 nM in assay [8].

B8: M103205H795-MY068/M103202L889-SK1 (antibody, human IgG1, kappa)
heavy: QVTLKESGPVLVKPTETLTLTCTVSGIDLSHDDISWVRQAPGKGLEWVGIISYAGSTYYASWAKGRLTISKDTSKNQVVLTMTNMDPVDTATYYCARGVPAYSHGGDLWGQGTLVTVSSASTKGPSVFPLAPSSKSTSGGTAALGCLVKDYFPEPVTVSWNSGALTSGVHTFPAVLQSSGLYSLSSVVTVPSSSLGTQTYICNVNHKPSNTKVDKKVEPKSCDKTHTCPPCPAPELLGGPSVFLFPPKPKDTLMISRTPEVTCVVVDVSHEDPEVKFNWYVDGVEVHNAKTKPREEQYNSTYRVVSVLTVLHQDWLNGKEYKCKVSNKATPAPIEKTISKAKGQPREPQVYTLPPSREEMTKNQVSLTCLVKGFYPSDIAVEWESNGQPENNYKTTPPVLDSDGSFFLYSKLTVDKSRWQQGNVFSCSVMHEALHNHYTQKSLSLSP
light: B1 light
notes: as for B1
In the case of B8, the Kd in assay [1] was determined as 1000 nM; in assay [2] it was 2700 nM; in assay [3], 580 nM; in assay [4], 370 nM; in assay [5], 2100 nM; in assay [6] it was 2100 nM. For the same molecule, the Kd is 520 nM in assay [7] and 5700 nM in assay [8].

B9: M103205H795-MY071/M103202L889-SK1 (antibody, human IgG1, kappa)
heavy: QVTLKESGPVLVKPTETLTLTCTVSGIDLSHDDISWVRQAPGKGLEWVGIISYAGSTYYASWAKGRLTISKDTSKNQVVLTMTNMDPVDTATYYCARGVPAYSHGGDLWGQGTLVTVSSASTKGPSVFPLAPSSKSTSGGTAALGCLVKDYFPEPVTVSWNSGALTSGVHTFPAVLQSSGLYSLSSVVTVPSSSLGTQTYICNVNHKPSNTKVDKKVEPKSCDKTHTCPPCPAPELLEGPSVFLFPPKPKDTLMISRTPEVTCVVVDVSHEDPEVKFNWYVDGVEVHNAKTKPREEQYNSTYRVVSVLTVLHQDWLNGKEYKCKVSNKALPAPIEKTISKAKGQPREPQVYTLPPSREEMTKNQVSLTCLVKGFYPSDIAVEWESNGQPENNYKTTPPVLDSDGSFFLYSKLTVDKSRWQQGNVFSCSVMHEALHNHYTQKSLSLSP
light: B1 light
notes: as for B1
With B9, the Kd worked out at 2500 nM in assay [1]; 3700 nM in assay [2]; 280 nM in assay [3]; 400 nM in assay [4]; 8100 nM in assay [5]; 5000 nM in assay [6]. Moreover, the Kd in assay [7] came to 450 nM; in assay [8], 9200 nM.

B10: M103205H795-MY044/M103202L889-SK1 (antibody, human IgG1, kappa)
heavy: not shown
light: B1 light
notes: as for B1
Turning to B10, the Kd was found to be 1600 nM in assay [1]; 3500 nM in assay [2]; 470 nM in assay [3]; 1200 nM in assay [4]; 3300 nM in assay [5]; 3200 nM in assay [6]. The Kd in assay [7] was 920 nM; in assay [8], 52000 nM.

B11: M103205H795-MY043/M103202L889-SK1 (antibody, human IgG1, kappa)
heavy: not shown
light: B1 light
notes: as for B1
Turning to B11, the Kd in assay [1] was determined as 4400 nM; in assay [2], 61000 nM; in assay [3], 840 nM; in assay [4], 2900 nM; in assay [5], 3000 nM; in assay [6], 5800 nM. For the same molecule, the dissociation constant Kd in assay [7] was 1500 nM; in assay [8], 18000 nM.

B12: M103205H795-MY072/M103202L889-SK1 (antibody, human IgG1, kappa)
heavy: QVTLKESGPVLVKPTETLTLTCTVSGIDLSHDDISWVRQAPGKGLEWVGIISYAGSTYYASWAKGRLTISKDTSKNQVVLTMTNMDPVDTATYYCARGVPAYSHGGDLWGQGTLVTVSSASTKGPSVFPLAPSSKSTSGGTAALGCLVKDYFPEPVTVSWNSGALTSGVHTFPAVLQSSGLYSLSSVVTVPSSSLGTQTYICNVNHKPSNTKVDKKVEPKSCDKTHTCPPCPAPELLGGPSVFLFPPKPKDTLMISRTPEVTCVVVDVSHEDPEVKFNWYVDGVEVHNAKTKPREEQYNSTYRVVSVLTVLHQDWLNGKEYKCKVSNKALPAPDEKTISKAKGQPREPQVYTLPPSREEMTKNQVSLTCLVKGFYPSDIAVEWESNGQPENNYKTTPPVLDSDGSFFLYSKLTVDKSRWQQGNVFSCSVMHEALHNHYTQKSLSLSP
light: B1 light
notes: as for B1
B12: the Kd is 480 nM in assay [1]; 1200 nM in assay [2]; 53 nM in assay [3]; 250 nM in assay [4]; 1500 nM in assay [5]; 1000 nM in assay [6]. Moreover, the equilibrium dissociation constant (Kd) in assay [7] was 480 nM; in assay [8] it was 2600 nM.

B13: M103205H795-MY064/M103202L889-SK1 (antibody, human IgG1, kappa)
heavy: not shown
light: B1 light
notes: as for B1
B13: the Kd in assay [1] stood at 1100 nM; in assay [2], 2800 nM; in assay [3], 120 nM; in assay [4], 500 nM; in assay [5], 2400 nM; in assay [6], 2400 nM. In addition, the Kd in assay [7] turned out to be 680 nM; in assay [8] it was 59000 nM.

B14: M103205H795-MY048/M103202L889-SK1 (P271D) (antibody, human IgG1, kappa)
heavy: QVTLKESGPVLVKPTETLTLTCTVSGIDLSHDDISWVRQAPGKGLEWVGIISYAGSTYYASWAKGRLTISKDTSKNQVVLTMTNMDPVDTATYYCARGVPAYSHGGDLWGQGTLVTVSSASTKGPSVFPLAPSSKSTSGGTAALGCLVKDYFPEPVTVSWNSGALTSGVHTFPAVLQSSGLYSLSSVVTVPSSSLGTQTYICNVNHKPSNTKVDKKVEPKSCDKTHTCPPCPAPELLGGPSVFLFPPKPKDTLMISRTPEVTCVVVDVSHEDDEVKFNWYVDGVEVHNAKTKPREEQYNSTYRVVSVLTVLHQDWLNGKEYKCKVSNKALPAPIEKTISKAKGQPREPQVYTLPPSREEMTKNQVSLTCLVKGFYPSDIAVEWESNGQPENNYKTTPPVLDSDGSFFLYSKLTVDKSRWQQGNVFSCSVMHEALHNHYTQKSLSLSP
light: B1 light
notes: Here the P271D molecule is meant; Put into M103205H795-SG1
For B14, the dissociation constant Kd in assay [1] was found to be 3500 nM; in assay [2] it was 11000 nM; in assay [3] it was 370 nM; in assay [4] it was 1800 nM; in assay [5], 3000 nM; in assay [6], 6600 nM. Further, the Kd in assay [7] is 1200 nM; in assay [8] it was 4400 nM.

B15: M103205H795-MY073/M103202L889-SK1 (antibody, human IgG1, kappa)
heavy: not shown
light: B1 light
notes: as for B1
As to B15, the Kd in assay [1] was 670 nM; in assay [2], 1300 nM; in assay [3], 170 nM; in assay [4], 240 nM; in assay [5] it was 2000 nM; in assay [6] it was 1200 nM. Further, the Kd in assay [7] was 500 nM; in assay [8] it was 5100 nM.
